Measured values: the DeepSol protein solubility set

Test: soluble on expression in E. coli; label from the status in PepcDB or PDB records

| Sequence | soluble on expression in E. coli |
| --- | --- |
| MGSDKIHHHHHHALGDQTLRKGQSHPDVKELQEALKKKGFFNYHTSTGYFGSITEDAVREFQMKHGLQVDGIAGPQTLNALLSQMNGNNGGQQTSSSAPNSTSNSTILRFGSSGQAVRDLQEKLKAKGYYNHSITGQYGRITTEAVREFQRANRLTVDGIAGPQTLAALTNQAPAASAPQYNAPVQQTTVLRQGSRGDAVRDLQRSLKDLGYYKSSIDGIFGAGTTTAVREFQRKMGLTVDGVAGPQTLNALHVNPTPNTSNGQSSSSGGNTASSGNRGATITNIVANASELIGTPYVWGGTTPRGFDCSGFVQYVFAQQGVSIPRTVAQMWNAGTSVSQPSVGDIVFFDTTGGPSHNGIYIGNNQFIHSGSSTGVTIASMNNSYWASRYLGAKRLY | not soluble |
| MGSDKIHHHHHHAQNQDCAFFFPNQEGEQITRNCYTADGKLTNILVYRVDQAYEYPSGMEVVANYTFADAAGKTLNSGQMVARCSDGNFSMSMGDVATFPTALNMMNADVYMMGDLMNYPDAFSNPMNPGDDDEFDDGTLRLYQKGNKNNRAEISVFDREFVTTETVNTPAGAFYCTKVKYEMNIWTPKETIKGYGYEWYAPNIGIVRSEQYNNKKELQSYSVLERIKK | not soluble |
| MGSDKIHHHHHHAQQLNVQGDLVSSYVWRGMYQTGASIQPTLGFSVGNFSLTAWGSTDFDGTSASAGAAAKEIDLTAAYTLGRSGLTVSVADLWWAGQGARKYFNFKSHETAHHFEAGVAYTVQSETFPLSVAWYTMFAGQDKNAEGGQNYSSYVEFNYPFRVRMVDLNVTCGMVPYAAPQYNCDGFAVTNVALKGTTQIRFTDKFALPVFAQAVWNPRMEDAHLVFGITLKP | not soluble |
| MGSDKIHHHHHHAQTWENVHFNVDWQMNVPLNSNFADKFSGWGMNFEGKYDLTPYWAIGAFLNFHTNHRYVDRRTIPLTPTASLTTDQQQSAFQLPFGISVSYKLPDNRYVKPYFGVKSGAMYSQNSIYNNLVQWYERPWGFYVSPELGMDIHPVPYQRLGFHVAVYYSYATNKTDILTYSEDGRNSMGVRVGVCF | not soluble |
| MGSDKIHHHHHHAQYTNIQTWGQKLYYNGSDYPGTFLKLKVAVANPRISGTGGKVVFYDSESSQYNYIEVKGVYQSSDARLKTNITPLNSGLGTILGLKPVSYNWKSETSQLRSAEAVPSKAFGFLAQEVAEVMPEIVTLSSTGDSLVDYTAVIPVLVQAVKELDATIQQLELQLDEKANLSDLQNNKNLTSKSLLSNAVMNQNTPNPFNSTTNISFTIPTSARSAFISICNLQGTQVKKFDIATRGEGSIMVSFSDLGVAGMYMYSLVVDGQLISTKRMLLVQ | not soluble |
| MGSDKIHHHHHHASPGPGEIANTQARHIATFFPGRMTGSPAEMLSADYLRQQFTQMGYQSDIRTFNSRFIYTTKDNRKNWHNVTGSTVIAAHEGRVPQQIIIMAHLDTYAPQSDADVDANLGGLTLQGMDDNAAGLGVMLELAARLKDIPTHYGIRFIATSGEEEGKLGAENLLKRMSDAEKKNTLLVINLDNLIVGDKLYFNSGKNTPEAVRTLTRDRALAIARRYGIAANTNPGRNPSYPKGTGCCNDAEVFDKAGISVLSVEATNWNLGKKDGYQQRVKNASFPNGNSWHDVRLDNQQHIDKALPGRIERRSRDVVRIMLPLVKELAKAEKTS | not soluble |
| MGSDKIHHHHHHAVVSCDSILGEEEVDCSVEYRVKFKYDYNMKYADAFSREVGTVTLYAFDDNGKLVYQKTEEGDVLGEEGYTMKVDLEPGDYHLVTWAGLNDEASFSVPLVTAGESSLDELQCRMDRLYSRAADGTAVVNSKLSALWHGEVTKQSFSRAASSQVVTVPLVKNTNTIRIILQQMDGVTVEVDKFEFTITDDNGLMNYDNKLLEDETLTYYPYYRMQGGTDMGIRADGDAEDSNISVAIAQITVGRLVVENNPRLTITNKETGEPVLSIPLVKYLLLTEAEGHEMTNQEYLDRQDEYNMTFFLDESMKWINTSIIINDWVVRFNELDM | not soluble |
| MGSDKIHHHHHHCAASWVHPLTGAHLLLFGTEQGIYSFDTNCMPDGNLSKIHHRRCSWMFVYADRLTAIQGNTPYVYRHDLVALTQKNLTLKMSKNLNKIPEKYVPKRLAITVRMPETRGALQCTVKRGQGAQANSLFLCCAVRKTVHLFQWYNPMNQFVLVRSEPIREDIRFPIRPFALINSRTSDFPELCIGVGQMSGSNEYQFNMINFCSSTNNSELSGDLNSSYGSLADDEMLEVGSMHQIDRDTLCFSFRNKVVLTDLQGFERPKPSIFTFNFHIEYLHVVDGTILAFHANGVQGRDLKSNLNTQDLCDVSRLYRVIGDDRVIILRSQP | not soluble |
| MGSDKIHHHHHHCELDRDPEGKDFQQPYTSFVQTKQNRDGLYALLRNTENPRMHFYQELQSDMYCTTITDGNSLAPFVNWDLGILNDHGRADEDEVSGIAGYYFVYNRLNQQANAFVNNTEAALQNQVYKNSTEIANAKSFLAEGKVLQALAIWRLMDRFSFHESVTEVNSGAKDLGVILLKEYNPGYIGPRATKAQCYDYILSRLSEAIEVLPENRESVLYVSRDYAYALRARIYLALGEYGKAAADAKMVVDKYPLIGAADASEFENIYRSDANNPEIIFRGFASATLGSFTATTLNGAAPAGKDIKYNPSAVPFQWVVDLYENEDFRKSVYIAKVVKKDKGYLVNKFLEDKAYRDVQDKPNLKVGARYFSVAEVYLILVESALQTGDTPTAEKYLKALSKARGAEVSVVNMEALQAERTRELIGEGSRLRDMVRWSIPNNHDAFETQPGLEGFANTTPLKAQAPVGFYAYTWEFPQRDRQTNPQLIKNWPI | not soluble |
| MGSDKIHHHHHHDEIDTLVSKSDNAITFGTYVGKQTKALDKSAFAKDDKFGVSAYYGDGTFEANFMSNETISTTDGSTWTYTNTKYWPEGNPVSFVAYYPNLTTAPTITDGATAIPFTVKNDATEQVDFMWSTVKAATKDDKNGTAINGITNTTTDATSVPFVFQHGLSKISFKAKLGEASYSGVTIKVKSIKINGVKNKGTFTIPADLTAGTWATEDAATNDYTVSETNGKEIASTTADSIGESLLMIPQDMKGKTIEIAYDLVYTNPAQTISNTKAIVLDDKSNWVMNQQYTYTLTISLETVQLTASVGQFGANIDL | not soluble |
| MGSDKIHHHHHHDFLDRHPQGQFTEDDNPGALAEGKVFNIYTMMRNYNITAGIPAFAIEYFRSEDSEKGSTASDGADQAAMYDDFQYNASNGLIKAYWSQNYAVIYQCNDVIETIEKGNLTEENDLRNKGEALFFRAYCYFNLVRAFGEVPLVTFKVNDASEANVPKTTAEEIYKQIDSDLTQAEGLLPRQWQSAYLGRLTWGSARALHARTYMMRNDWQNMYTAATDVMNSGQYNLNTPYDVIFTDEGENSSESVFELQCASTAALPASDKIGSQFCEVQGVRGSGQWDLGWGWHMGTELMGEAFEPGDPRKDATLLYFRRSDTDPITPENTNKPYGESPVSQADGTYFNKKAYTNPALREEFTRHGFWVNIRIIRYGDVVLMAAESANELGKTGEASNYLEMVRARARGNNPDILPKVTSLDQTVLRDAIRHERRVELGLESGRFYDLVRWGIASQVLHAAGKTGYQPKNALLPLPQDEIDKSKGVLVQNPDY | not soluble |
| MGSDKIHHHHHHEKKDKKENDTSAVQATETDCTAAELVTTEPEGEITISEMIDQRIKEEGKIMIYRMCIAESNTPVEITEDLKVKIISYDGDKLKGYKNPDDFLMETRLGDIIHNKVDYSTYNIGTYGGNWKRHRYVSGGDEKYVEEEGYVQREITTDDSGNNAQLETLYSYSKGTLYSRDAGSKEWNQTEKEDSLDIVSFGTFERIKLDGKTYMTFCVRDNLNLIEYDIIPDNKFTENKTVVYDTPGTEKTTVNTVDYLKEYQAVPKEELEQMIVFPGSKKAESSQAAD | not soluble |
| MGSDKIHHHHHHENLYFQGMARTAEEQANHDLVIEMYNKVLIAMDSSAVDRYIAPGYVQHSSLAEPSVEALKGFLDRVRAESPDARQTIHRSFVDGDHVITHTHVERWPGDAGLAVVDIFRVEGGMIVEHWDVIQDVPANPVNPNSMF | soluble |
| MGSDKIHHHHHHEVPIGFDTDELSFDMSLVLLTGDMQTKASDPNYTYATTEELTIQNCHVAVFDKDGKRIYFKNFYSKDLGEMKTIGNLSGYELQLEGVRTFGKEDKKVSVLVVANANNANNSPFDNLTTYDGVDNSYTAKTIAKGPVTASLLVKIGKSETTLKYNQDNAPVTVSLIQLSAKIEYTGVYKKENGELLEGFSLTKVAGLNASSKITIFNTSAVENGAFSDLAYPTTKPVTFYTYEISDAFKEVILSVQSGVEPKEYPFPANKFIKGNYYRIKGLKSSTEIEWVLENVEDKEVTLDPFE | not soluble |
| MGSDKIHHHHHHFGKQSKPTPNFAKKSDAYSADDDRVPNLVDDDEEEIIGDEEDDVNQPGPSGSQSNPEPQDEEENAEQQSANSSQSSAAEEEDDEHVVPENEPVKPTEEFAKKSPKNTGGAKRRTARRGD | not soluble |
| MGSDKIHHHHHHGDWLNLNPSTSVTTPQAIRTLEEAQIALNGIYRIAASHSYYGDNYLYYADCRGEDVQARVSKGAGKRVSPYYEFNVTADDALNITRVWNQPYSVIHQANSLLERIESGAVVTDDAVALNCIKAEALALRGLALFDLTRLFAMPYTLNNGTSLGVPIEIKTTLPTHQPARNTVAECYQQVIDDMTGALKLSALSADKKNGYLNVWSVKALLSRVYLYMNDNEKALALAKEVMNNGGLYQLFTHDEYPTVWGKDFSSESLFEFYYTLSEPDGGTGGEGAPMVYADNVKDWNNLVLTKAFLDLLGEDPDDVRHSLNRLPEKPEEDILPEGSKGYPKYLNKYPGKTGDNPQDNDICIIRLSEVYLNAAEAAFKLGGAENLKFSLDCLNAIVSRANPVKSVKETELSLERILKERRKELVGEGHAFFDAMRNGLSVSRTGGWHLPSVAAAAVISPSDPRVALPIPQAEIDANPNMVQNPH | not soluble |
| MGSDKIHHHHHHGKKKPPPPKSASKMGPPPPAPAPPTAPEAAPAAPTPDAAAAAPAEGEKKDGEKKSEKKDGDKKEEEKKDEEKKDGDKKEDDKKDEKKDEDKKDEKKDADEKKDEEKKDDKKDEKKDEKKDEKKDEKKEKSKKSKKSSKSKKSKKSKREKKDEEKKEDDKKEDDKKDDKKEDEKKDDDKKDDEKNYFW | not soluble |
| MGSDKIHHHHHHGSSESAEYQQTNHYNTPKGFMNDIQTIFKGSDGYYHMYYLLNSNYKLANDGTEWYHVRTKDWEHFENLGVAIPKFVNGWSAVATGSIFQNSNQFFKDLPTSAIVAYFTSYTDTGQHQYVAYSLDNGSSYQPYNNGKPVMISQTKEQNARDPYIWYDSNSKRLMMYLAEGDKIGIYASSDGKNWAYQGATVLNQYTLGGKDLGLVECPNLKTFYDSATNTTKHVLFFGANGYQYGSTTGTYYMIGHLDTQGNFVPEQNAERLDQGSDYYGANFYQESDCVVKSIAWMGNWDYLQGQILDDQGQESKHLGSVSSARDITMVKRDDKYVLESYLKNNNSRTNTVSYQSNADTAKLADDGYHKTLLSVSRWHSQELSLKFQANAATLNGHIRLIFKQADAQVSLDYNTDNGYYEVKRTSSKIIGSQKVNYERSYVVDSHWNGQKELNIYLVADKSSLEFALPNGQTYSMVKLSTASDMDIVIETSGSNRLQADLANLET | not soluble |
| MGSDKIHHHHHHIEPCADYTTRELDLRNEIKGAEELEEIKYEISKSFPMDELRFPKYWSDLSNQDVLVSEFIEGKSLEEGIEEKSLSWDTLLRLFRIHGAYLFGIGTFHGDLHPGNCIIDNDGKFVFIDNGAICHAPSKVNLSLFQFFENLSSNDFDAAFDSLLGLSDSPLKSTNLDNYYKEMNKIYDGFQNQTVGEKSLTRIMMQTVQAAVEKAGADFGEEAFPIIRALMYLDGLVLRTHPDVKLIESMGPYLEEFRLGLDLENKIKNV | not soluble |
